According to the supplement of paper PMC12338614:
± gives the uncertainty stated by the source.

B1: library; numbered along this chain (parent)
chain: MEVVDPQQLGMFTEGELMSVGMDTFIHRIDSTEVIYQPRRKRAKLIGKYLMGDLLGEGSYGKVKEVLDSETLCRRAVKILKKKKLRRIPNGEANVKKEIQLLRRLRHKNVIQLVDVLYNEEKQKMYMVMEYCVCGMQEMLDSVPEKRFPVCQAHGYFCQLIDGLEYLHSQGIVHKDIKPGNLLLTTGGTLKISDLGVAEALHPFAADDTCRTSQGSPAFQPPEIANGLDTFSGFKVDIWSAGVTLYNITTGLYPFEGDNIYKLFENIGKGSYAIPGDCGPPLSDLLKGMLEYEPAKRFSIRQIRQHSWFRKKHPPAEAPVPIPPSPDTKDRWRSMTVVPYLEDLHGADEDEDLFDIEDDIIYTQDFTVPGQVPEEEASHNGQRRGLPKAVCMNGTEAAQLSTKSRAEGRAPNPARKACSASSKIRRLSACKQQ

Variants of: B1
Test: STK11 functional score (HeLa growth suppression), rescaled enrichment; synonymous median = 1, nonsense median = 0 (normalised score)
Conditions: with HeLa; variant type: missense
Method: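 Deep mutational scan (TileSeq/POPCode codon randomisation) of full-length codon-optimised STK11 cDNA integrated at a Bxb1 landing pad (AAVS1) in HeLa cells. Restoring functional STK11 suppresses HeLa proliferation. Variant frequencies were measured by NGS before and after about two weeks of growth. The error-corrected enrichment log-ratio was rescaled so that synonymous median = 1 and nonsense median = 0, scores above 1 were compressed, and codon-level and three biological replicate scores were combined; error is the bootstrapped standard error. Scale: synonymous median = 1, nonsense median = 0; below 0.5 = damaging.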
Variant MEVVDPQQLGMFTEGELMSVGMDTFIHRIDSTEVIYQPRRKRAKLIGKYLMGDLLGEGSYGKVKEVLDSETLCRRAVKILKKKKLRRIPNGEANVKKEIQLLRRLRHKNVIQLVDVLYNEEKQKMYMVMEYCVCGMQEMLDSVPEKRFPVCQAHGYFCQLIDGLEYLHSQGIVHKDIKPGNLLLTTGGTLKISDLGVAEALHPFAADDTCRTSQGSPAFQPPEIANGLDTFSGFKVDIWSAGVTLYNITTGLYPFEGDNIYKLFENIGKGSYAIPGDCGPPLSDLLKGMLEYEPAKRFSIRQIRQHSWFRKKHPPAEAPVPIPPSPDTKDRWRSDTVVPYLEDLHGADEDEDLFDIEDDIIYTQDFTVPGQVPEEEASHNGQRRGLPKAVCMNGTEAAQLSTKSRAEGRAPNPARKACSASSKIRRLSACKQQ [M335D] has an STK11 functional score of 0.605 ± 0.14. MEVVDPQQLGMFTEGELMSVGMDTFIHRIDSTEVIYQPRRKRAKLIGKYLMGDLLGEGSYGKVKEVLDSETLCRRAVKILKKKKLRRIPNGEANVKKEIQLLRRLRHKNVIQLVDVLYNEEKQKMYMVMEYCVCGMQEMLDSVPEKRFPVCQAHGYFCQLIDGLEYLHSQGIVHKDIKPGNLLLTTGGTLKISDLGVAEALHPFAADATCRTSQGSPAFQPPEIANGLDTFSGFKVDIWSAGVTLYNITTGLYPFEGDNIYKLFENIGKGSYAIPGDCGPPLSDLLKGMLEYEPAKRFSIRQIRQHSWFRKKHPPAEAPVPIPPSPDTKDRWRSMTVVPYLEDLHGADEDEDLFDIEDDIIYTQDFTVPGQVPEEEASHNGQRRGLPKAVCMNGTEAAQLSTKSRAEGRAPNPARKACSASSKIRRLSACKQQ [D208A] gave an STK11 functional score of 1.19 ± 0.23. For MEVVDPQQLGMFTEGELMSVGMDTFIHRIDSTEVIYQPRRKRAKLIGKYLMGDLLGEGSYGKVKEVLDSETLCRRAVKILKKKKLRRIPNGEANVKKEIQLLRRLRHKNVIQLVDVLYNEEKQKMYMVMEYCVCGMQEMLDSVPEKRFPVCQAHGYFCQLIDGLEYLHSQGIVHKDIKPGNLLLTTGGTFKISDLGVAEALHPFAADDTCRTSQGSPAFQPPEIANGLDTFSGFKVDIWSAGVTLYNITTGLYPFEGDNIYKLFENIGKGSYAIPGDCGPPLSDLLKGMLEYEPAKRFSIRQIRQHSWFRKKHPPAEAPVPIPPSPDTKDRWRSMTVVPYLEDLHGADEDEDLFDIEDDIIYTQDFTVPGQVPEEEASHNGQRRGLPKAVCMNGTEAAQLSTKSRAEGRAPNPARKACSASSKIRRLSACKQQ [L190F], the STK11 functional score was 0.343 ± 0.17. For MEVVDAQQLGMFTEGELMSVGMDTFIHRIDSTEVIYQPRRKRAKLIGKYLMGDLLGEGSYGKVKEVLDSETLCRRAVKILKKKKLRRIPNGEANVKKEIQLLRRLRHKNVIQLVDVLYNEEKQKMYMVMEYCVCGMQEMLDSVPEKRFPVCQAHGYFCQLIDGLEYLHSQGIVHKDIKPGNLLLTTGGTLKISDLGVAEALHPFAADDTCRTSQGSPAFQPPEIANGLDTFSGFKVDIWSAGVTLYNITTGLYPFEGDNIYKLFENIGKGSYAIPGDCGPPLSDLLKGMLEYEPAKRFSIRQIRQHSWFRKKHPPAEAPVPIPPSPDTKDRWRSMTVVPYLEDLHGADEDEDLFDIEDDIIYTQDFTVPGQVPEEEASHNGQRRGLPKAVCMNGTEAAQLSTKSRAEGRAPNPARKACSASSKIRRLSACKQQ [P6A], the STK11 functional score was 0.942 ± 0.1. MEVVDPQQLGMFTEGELMSVGMDTFIHRIDSTEVIYQPRRKRAKLIGKYLMGDLLGEGSYGKVKEVLDSETLCRRAVKILKKKKLRRIPNGEANVKKEIQLLRRLRHKNVIQLVDVLYNEEKQKMYMVMEYCVCGMQEMLDSVPEKRFPVCQAHGYFCQLIDGLEYLHSQGIVHKDIKPGNLLLTTGGTLKISDLGLAEALHPFAADDTCRTSQGSPAFQPPEIANGLDTFSGFKVDIWSAGVTLYNITTGLYPFEGDNIYKLFENIGKGSYAIPGDCGPPLSDLLKGMLEYEPAKRFSIRQIRQHSWFRKKHPPAEAPVPIPPSPDTKDRWRSMTVVPYLEDLHGADEDEDLFDIEDDIIYTQDFTVPGQVPEEEASHNGQRRGLPKAVCMNGTEAAQLSTKSRAEGRAPNPARKACSASSKIRRLSACKQQ [V197L] was tested, and the STK11 functional score was 1.05 ± 0.21. For MEVVDPQQLGMFTEGELMSVGMDTFIHRIDSTEVIYQPRRKRAKLIGKYLMGDLLGEGSYGKVKEVLDSETLCRRAVKILKKKKLRRIPNGEANVKKEIQLLRRLRHKNVIQLVDVLYNEEKQKMYMVMEYCVCGMQEMLDSVPEKRFPVCQAHGYFCQLIDGLEYLHSQGIVHKDIKPGNLLLTTGGTLKISDLGVAEALHPFAADDTCRTSQGSPAFQPPEIANGLDTFSGFKVDIWSAGVTLYNITTGLYPFEGDNIYKLFENIGKGSYAIPGDCGPPLSDLLKGMLEYEPAKRFSIRQIRQHSWFRKKHPPAEAPVPIPPSPDTKDRWRSMTVVPYLEDLHGADEDEDLFDIEDDIIYTQDFTVPGQVPEEEASHNGQRRILPKAVCMNGTEAAQLSTKSRAEGRAPNPARKACSASSKIRRLSACKQQ [G385I], the STK11 functional score was 1.45 ± 0.25. With MEVVDPQQLGMFTEGELMSVGMDTFIHRIDSTEVIYQPRRKRAKLIGKYLMGDLLGEGSYGKVKEVLDSETLCRRAVKILKKKKLRRIPNGEANVKKEIQLLRRLRHKNVIQLVDVLYNIEKQKMYMVMEYCVCGMQEMLDSVPEKRFPVCQAHGYFCQLIDGLEYLHSQGIVHKDIKPGNLLLTTGGTLKISDLGVAEALHPFAADDTCRTSQGSPAFQPPEIANGLDTFSGFKVDIWSAGVTLYNITTGLYPFEGDNIYKLFENIGKGSYAIPGDCGPPLSDLLKGMLEYEPAKRFSIRQIRQHSWFRKKHPPAEAPVPIPPSPDTKDRWRSMTVVPYLEDLHGADEDEDLFDIEDDIIYTQDFTVPGQVPEEEASHNGQRRGLPKAVCMNGTEAAQLSTKSRAEGRAPNPARKACSASSKIRRLSACKQQ [E120I] the STK11 functional score was 1.55 ± 0.18.
